# Test results taken from publication PMC10663500.
# Target: toripalimab Fab, wild type
# Test: SPR; Carterra LSA; Fab from the ammonium sulfate precipitate of the culture supernatant immobilised on a NiHC200M chip; hPD-1 (1-1024 nM) or mPD-1-Fc (4-1024 nM) as analyte, fourfold dilution series, no regeneration; HBS-EP pH 7.4, 25 °C; medians over the spots of a construct, KD = koff/kon
# toripalimab Fab, wild type, sequence (heavy, as listed by the source, chain 1 of 2): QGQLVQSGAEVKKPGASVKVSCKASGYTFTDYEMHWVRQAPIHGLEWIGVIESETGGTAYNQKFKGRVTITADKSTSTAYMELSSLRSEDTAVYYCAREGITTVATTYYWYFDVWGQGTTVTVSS
# toripalimab Fab, wild type, sequence (light, as listed by the source, chain 2 of 2): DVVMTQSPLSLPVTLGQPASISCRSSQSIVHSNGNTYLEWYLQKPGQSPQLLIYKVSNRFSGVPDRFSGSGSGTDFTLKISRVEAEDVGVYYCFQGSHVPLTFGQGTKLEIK
# mouse programmed cell death protein 1 Fc fusion protein (mPD-1-Fc), mPD-1 C60S (aa 25-167), sequence (Q02242 25-167, stated change not applied): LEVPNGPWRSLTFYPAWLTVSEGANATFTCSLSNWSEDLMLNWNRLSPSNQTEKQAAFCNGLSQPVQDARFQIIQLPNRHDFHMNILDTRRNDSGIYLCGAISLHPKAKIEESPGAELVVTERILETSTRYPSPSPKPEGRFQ
substance,measurement,value
"mouse programmed cell death protein 1 Fc fusion protein (mPD-1-Fc), mPD-1 C60S (aa 25-167) (from UniProt Q02242 25-167)",Kd,136 nM
same,koff,0.00548 s⁻¹
same,kon,40300 M⁻¹ s⁻¹
